According to publication PMC4584387 (Journal of Medicinal Chemistry, 2015):
Where no end group is shown, it is not given here.

Molecular target: Full-length human menin (human, UniProt O00255 1-610)
Test: fluorescence polarisation

Chain of Full-length human menin (O00255 whole entry): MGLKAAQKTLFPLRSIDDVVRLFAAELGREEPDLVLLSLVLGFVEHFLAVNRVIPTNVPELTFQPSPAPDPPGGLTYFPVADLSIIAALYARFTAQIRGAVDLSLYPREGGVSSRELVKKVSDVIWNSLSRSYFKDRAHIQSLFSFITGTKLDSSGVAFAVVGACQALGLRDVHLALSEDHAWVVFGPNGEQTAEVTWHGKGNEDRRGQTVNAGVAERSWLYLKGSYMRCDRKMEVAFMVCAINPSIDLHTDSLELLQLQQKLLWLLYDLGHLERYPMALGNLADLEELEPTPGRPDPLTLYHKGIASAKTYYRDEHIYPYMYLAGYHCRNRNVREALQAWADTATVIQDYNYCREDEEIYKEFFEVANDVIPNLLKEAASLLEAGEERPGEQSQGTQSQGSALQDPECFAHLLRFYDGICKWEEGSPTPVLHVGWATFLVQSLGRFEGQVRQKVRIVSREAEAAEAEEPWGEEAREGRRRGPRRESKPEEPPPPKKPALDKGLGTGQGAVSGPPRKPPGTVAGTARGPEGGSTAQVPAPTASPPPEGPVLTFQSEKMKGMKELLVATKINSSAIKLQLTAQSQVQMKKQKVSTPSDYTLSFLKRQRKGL

binding result: binds
Binder: SCRWRFPARPGT (peptide, UniProt Q03164 4-15, looked up, also: FITC label, position not given here) [FITC-MBM1 peptide of MLL (residues 4-15)]
